24 substances from US20240132573A1 can be followed below.

Among the targets are Plasmin (UniProt P00747); Thrombin (UniProt P00734); Plasma kallikrein (UniProt P03952); Activated protein C (UniProt P04070); Human αFXIIa (Human) (UniProt P00748).
Assay in all cases: cell-based or functional assay
The next experiment deals with T1, Human βFXIIa (Human) (UniProt P00748).
T1 sequence (looked up): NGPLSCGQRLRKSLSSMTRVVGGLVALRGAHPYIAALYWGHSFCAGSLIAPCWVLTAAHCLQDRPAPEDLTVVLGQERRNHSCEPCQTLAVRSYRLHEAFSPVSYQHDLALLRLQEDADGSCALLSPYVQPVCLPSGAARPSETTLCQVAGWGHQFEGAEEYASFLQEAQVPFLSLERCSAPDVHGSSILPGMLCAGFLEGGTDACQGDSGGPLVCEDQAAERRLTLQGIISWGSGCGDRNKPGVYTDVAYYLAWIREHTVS

Chain of Plasma kallikrein (P03952 20-638 limits assumed): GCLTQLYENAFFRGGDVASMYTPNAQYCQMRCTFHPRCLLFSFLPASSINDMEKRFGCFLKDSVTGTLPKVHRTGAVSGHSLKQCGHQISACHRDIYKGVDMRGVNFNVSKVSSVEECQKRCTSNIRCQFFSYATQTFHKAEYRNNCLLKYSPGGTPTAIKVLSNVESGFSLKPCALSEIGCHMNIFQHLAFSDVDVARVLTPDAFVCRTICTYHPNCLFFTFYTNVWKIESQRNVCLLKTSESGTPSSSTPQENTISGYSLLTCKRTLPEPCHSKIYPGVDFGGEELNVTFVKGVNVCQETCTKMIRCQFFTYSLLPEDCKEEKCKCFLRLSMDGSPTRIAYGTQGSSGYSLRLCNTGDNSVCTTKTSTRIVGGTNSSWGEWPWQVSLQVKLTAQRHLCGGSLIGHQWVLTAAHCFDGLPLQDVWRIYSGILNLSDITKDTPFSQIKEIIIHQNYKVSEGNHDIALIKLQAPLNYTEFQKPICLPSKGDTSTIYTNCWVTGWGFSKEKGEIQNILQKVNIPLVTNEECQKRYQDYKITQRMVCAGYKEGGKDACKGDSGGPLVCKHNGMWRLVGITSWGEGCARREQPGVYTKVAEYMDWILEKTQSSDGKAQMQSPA
Chain of Activated protein C (P04070 43-461): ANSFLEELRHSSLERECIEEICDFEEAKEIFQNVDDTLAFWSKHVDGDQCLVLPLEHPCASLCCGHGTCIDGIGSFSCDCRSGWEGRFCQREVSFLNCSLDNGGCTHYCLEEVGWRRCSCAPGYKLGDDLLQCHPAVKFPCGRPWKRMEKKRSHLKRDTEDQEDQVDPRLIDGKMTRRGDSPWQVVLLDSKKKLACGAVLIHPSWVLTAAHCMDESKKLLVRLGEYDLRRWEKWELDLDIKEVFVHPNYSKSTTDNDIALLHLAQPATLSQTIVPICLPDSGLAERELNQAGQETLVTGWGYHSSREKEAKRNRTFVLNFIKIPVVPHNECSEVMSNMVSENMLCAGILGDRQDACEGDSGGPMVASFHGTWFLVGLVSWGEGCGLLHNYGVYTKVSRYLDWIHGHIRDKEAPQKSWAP
Chain of Plasmin (P00747 97-810 limits assumed): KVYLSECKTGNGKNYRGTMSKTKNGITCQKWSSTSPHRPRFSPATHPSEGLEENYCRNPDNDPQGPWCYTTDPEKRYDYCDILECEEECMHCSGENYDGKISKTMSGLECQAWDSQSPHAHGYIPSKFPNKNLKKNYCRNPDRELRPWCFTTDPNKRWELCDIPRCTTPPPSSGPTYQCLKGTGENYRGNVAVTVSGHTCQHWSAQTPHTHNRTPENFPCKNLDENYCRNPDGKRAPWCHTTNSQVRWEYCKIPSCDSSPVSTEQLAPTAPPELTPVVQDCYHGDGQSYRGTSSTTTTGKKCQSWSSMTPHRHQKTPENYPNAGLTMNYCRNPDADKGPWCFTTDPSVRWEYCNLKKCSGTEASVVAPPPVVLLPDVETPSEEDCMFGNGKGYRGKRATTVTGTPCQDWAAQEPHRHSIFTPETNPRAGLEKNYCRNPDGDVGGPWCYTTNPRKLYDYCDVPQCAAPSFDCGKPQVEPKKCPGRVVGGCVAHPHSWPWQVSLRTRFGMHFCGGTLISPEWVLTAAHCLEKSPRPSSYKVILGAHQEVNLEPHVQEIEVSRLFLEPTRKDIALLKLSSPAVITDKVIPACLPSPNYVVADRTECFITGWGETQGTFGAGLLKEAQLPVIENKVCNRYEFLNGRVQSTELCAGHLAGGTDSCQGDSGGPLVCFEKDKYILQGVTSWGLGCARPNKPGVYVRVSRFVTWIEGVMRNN
Chain of α1-Antitrypsin WT (P01009 25-418): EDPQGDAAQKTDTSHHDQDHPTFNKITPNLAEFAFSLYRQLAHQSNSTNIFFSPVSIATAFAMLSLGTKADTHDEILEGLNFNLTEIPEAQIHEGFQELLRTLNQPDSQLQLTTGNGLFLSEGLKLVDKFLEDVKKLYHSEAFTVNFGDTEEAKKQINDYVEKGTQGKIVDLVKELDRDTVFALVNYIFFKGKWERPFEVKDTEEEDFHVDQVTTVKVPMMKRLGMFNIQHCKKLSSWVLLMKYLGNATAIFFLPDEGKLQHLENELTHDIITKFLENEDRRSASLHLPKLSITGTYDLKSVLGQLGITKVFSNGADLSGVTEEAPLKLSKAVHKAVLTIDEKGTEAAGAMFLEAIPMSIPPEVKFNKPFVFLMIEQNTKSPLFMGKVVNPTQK

On to “α1-Antitrypsin variant SLGRox* (from UniProt P01009 25-418)”, for which the percentage inhibition, average (L2120 conversion) with Human βFXIIa (Human) was found to be 17.3%; with Plasma kallikrein, 95.5%. Also, the percentage inhibition, average (I1390 conversion) with Plasmin was found to be 5.3%. Besides, the percentage inhibition, average (I1140 conversion) with Thrombin amounted to 9.5%. The same substance displayed a percentage inhibition, average (S2366 conversion) with Activated protein C of 1%.
For “α1-Antitrypsin variant SGQRox* (from UniProt P01009 25-418)”, the percentage inhibition, average (L2120 conversion) worked out at 4% with Human βFXIIa (Human), 4.5% with Human αFXIIa (Human) and 88% with Plasma kallikrein. Moreover, the percentage inhibition, average (I1390 conversion) with Plasmin was determined as 5%. The percentage inhibition, average (I1140 conversion) with Thrombin was determined as 14.5%. Besides, the percentage inhibition, average (S2366 conversion) with Activated protein C is 6.5%.
With “α1-Antitrypsin variant SNSRox* (from UniProt P01009 25-418)”, the percentage inhibition, average (L2120 conversion) came to 20% in the experiment with Human βFXIIa (Human) and 97% in the experiment with Plasma kallikrein. Moreover, in the experiment with Plasmin, the percentage inhibition, average (I1390 conversion) came to 0%. This substance yielded a percentage inhibition, average (I1140 conversion) with Thrombin of 62%. This substance also showed a percentage inhibition, average (S2366 conversion) with Activated protein C of 7%.
The matching figures for “α1-Antitrypsin variant SYARox* (from UniProt P01009 25-418)”: 20%, 97%, 0%, 62% and 7%.
The matching figures for “α1-Antitrypsin variant SDYKox* (from UniProt P01009 25-418)”: 7%, 50%, 7%, 0% and 1%.
Turning to “α1-Antitrypsin variant SMTRox* (from UniProt P01009 25-418)”, the values for the percentage inhibition, average (L2120 conversion) in the experiment with Human βFXIIa (Human), in the experiment with Human αFXIIa (Human) and with Plasma kallikrein were 89.2%, 92.5% and 98.7%, respectively. This substance also yielded a percentage inhibition, average (I1390 conversion) with Plasmin of 94.5%. In the experiment with Thrombin, this substance yielded a percentage inhibition, average (I1140 conversion) of 10.3%. In the experiment with Activated protein C, the percentage inhibition, average (S2366 conversion) is 76.5%.
Consider “α1-Antitrypsin variant SATRox* (from UniProt P01009 25-418)”, for which the percentage inhibition, average (L2120 conversion) amounted to 15% in the experiment with Human βFXIIa (Human), 17% in the experiment with Human αFXIIa (Human) and 94% with Plasma kallikrein. In the experiment with Plasmin, this substance showed a percentage inhibition, average (I1390 conversion) of 0%. In the experiment with Thrombin, this substance had a percentage inhibition, average (I1140 conversion) of 3%. In the experiment with Activated protein C, the percentage inhibition, average (S2366 conversion) was found to be 10%.
In the case of “α1-Antitrypsin variant SPRRox* (from UniProt P01009 25-418)”, the percentage inhibition, average (L2120 conversion) in the experiment with Human βFXIIa (Human) was determined as 2%; with Human αFXIIa (Human) it was 1%; with Plasma kallikrein it was 97%. The substance also gave a percentage inhibition, average (I1390 conversion) with Plasmin of 19%. Besides, the percentage inhibition, average (I1140 conversion) with Thrombin amounted to 0%. Also, the percentage inhibition, average (S2366 conversion) with Activated protein C is 1%.
Consider “α1-Antitrypsin variant SLLRox* (from UniProt P01009 25-418)”, for which the percentage inhibition, average (L2120 conversion) in the experiment with Human βFXIIa (Human) amounted to 41%; with Plasma kallikrein it was 97.7%. In the experiment with Plasmin, this substance registered a percentage inhibition, average (I1390 conversion) of 94.7%. The substance also gave a percentage inhibition, average (I1140 conversion) in the experiment with Thrombin of 62.3%. This substance returned a percentage inhibition, average (S2366 conversion) in the experiment with Activated protein C of 9.7%.
For “α1-Antitrypsin variant SMTRox*-VVGG (from UniProt P01009 25-418)”, the percentage inhibition, average (L2120 conversion) in the experiment with Human βFXIIa (Human) is 29%; in the experiment with Plasma kallikrein, 47%. The same substance showed a percentage inhibition, average (I1390 conversion) in the experiment with Plasmin of 8%. For the same substance, the percentage inhibition, average (I1140 conversion) with Thrombin stood at 1%. The substance further gave a percentage inhibition, average (S2366 conversion) in the experiment with Activated protein C of 0%.
For “α1-Antitrypsin WT (from UniProt P01009 25-418)”, the percentage inhibition, average (L2120 conversion) in the experiment with Human βFXIIa (Human), with Human αFXIIa (Human) and in the experiment with Plasma kallikrein was 0% each time. The substance also showed a percentage inhibition, average (I1390 conversion) with Plasmin of 0%. This substance came in with a percentage inhibition, average (I1140 conversion) in the experiment with Thrombin of 0%. Further, the percentage inhibition, average (S2366 conversion) in the experiment with Activated protein C stood at 0%.
“α1-Antitrypsin variant SLLRox*-V (from UniProt P01009 25-418)”: the percentage inhibition, average (L2120 conversion) with Human βFXIIa (Human) came out at 47%; in the experiment with Plasma kallikrein, 97.5%. The substance also displayed a percentage inhibition, average (I1390 conversion) with Plasmin of 68%. The substance further returned a percentage inhibition, average (I1140 conversion) with Thrombin of 4.5%. The substance further showed a percentage inhibition, average (S2366 conversion) in the experiment with Activated protein C of 3%.
With “α1-Antitrypsin variant SMHRox* (from UniProt P01009 25-418)”, the percentage inhibition, average (L2120 conversion) was determined as 18.3% with Human βFXIIa (Human) and 96.3% with Plasma kallikrein. The percentage inhibition, average (I1390 conversion) with Plasmin was 73%. This substance had a percentage inhibition, average (I1140 conversion) with Thrombin of 10%. The percentage inhibition, average (S2366 conversion) in the experiment with Activated protein C was determined as 34%.
Take “α1-Antitrypsin variant M358R (from UniProt P01009 25-418)”: the percentage inhibition, average (L2120 conversion) in the experiment with Human βFXIIa (Human) amounted to 90%; with Human αFXIIa (Human) it was 94%; with Plasma kallikrein, 91.5%. In the experiment with Plasmin, this substance returned a percentage inhibition, average (I1390 conversion) of 100%. In addition, the percentage inhibition, average (I1140 conversion) in the experiment with Thrombin was 100%. The percentage inhibition, average (S2366 conversion) with Activated protein C came out at 94%.
Regarding “α1-Antitrypsin variant SEARox* (from UniProt P01009 25-418)”, the results for the percentage inhibition, average (L2120 conversion) with Human βFXIIa (Human) and with Plasma kallikrein were 6% and 92%, respectively. For the same substance, the percentage inhibition, average (I1390 conversion) in the experiment with Plasmin amounted to 13%. This substance came in with a percentage inhibition, average (I1140 conversion) with Thrombin of 0%. For the same substance, the percentage inhibition, average (S2366 conversion) in the experiment with Activated protein C is 3%.
The matching figures for “α1-Antitrypsin variant SKGRox* (from UniProt P01009 25-418)”: 22%, 97%, 37%, 7% and 0%.
The matching figures for “α1-Antitrypsin variant SLLRox*-I (from UniProt P01009 25-418)”: 40.3%, 91.3%, 66.7%, 3.7% and 2.3%.
In the case of “α1-Antitrypsin variant SVRKox* (from UniProt P01009 25-418)”, the values for the percentage inhibition, average (L2120 conversion) in the experiment with Human βFXIIa (Human), with Human αFXIIa (Human) and with Plasma kallikrein were 0%, 2% and 91%, respectively. Moreover, in the experiment with Plasmin, the percentage inhibition, average (I1390 conversion) was determined as 97%. In addition, the percentage inhibition, average (I1140 conversion) with Thrombin is 1%. The percentage inhibition, average (S2366 conversion) with Activated protein C was found to be 4%.
Turning to “α1-Antitrypsin variant SMTRox*-GVGG (from UniProt P01009 25-418)”, the percentage inhibition, average (L2120 conversion) in the experiment with Human βFXIIa (Human) came out at 9%; with Plasma kallikrein it was 39%. For the same substance, the percentage inhibition, average (I1390 conversion) with Plasmin was 20%. Moreover, the percentage inhibition, average (I1140 conversion) with Thrombin amounted to 3%. The substance also showed a percentage inhibition, average (S2366 conversion) with Activated protein C of 3%.
With “α1-Antitrypsin variant SWKKox* (from UniProt P01009 25-418)”, the percentage inhibition, average (L2120 conversion) with Human βFXIIa (Human) was 5%; with Plasma kallikrein it was 94%. For the same substance, the percentage inhibition, average (I1390 conversion) with Plasmin worked out at 47%. Also, the percentage inhibition, average (I1140 conversion) in the experiment with Thrombin is 0%. The substance further showed a percentage inhibition, average (S2366 conversion) with Activated protein C of 0%.
As to “α1-Antitrypsin variant SMDRox* (from UniProt P01009 25-418)”, the percentage inhibition, average (L2120 conversion) with Human βFXIIa (Human) is 4%; in the experiment with Plasma kallikrein it was 87%. The same substance displayed a percentage inhibition, average (I1390 conversion) with Plasmin of 20%. Besides, in the experiment with Thrombin, the percentage inhibition, average (I1140 conversion) was 0%. The same substance yielded a percentage inhibition, average (S2366 conversion) in the experiment with Activated protein C of 0%.
With “α1-Antitrypsin variant SVVKox* (from UniProt P01009 25-418)”, the percentage inhibition, average (L2120 conversion) with Human βFXIIa (Human) was 2%; in the experiment with Human αFXIIa (Human), 4%; in the experiment with Plasma kallikrein, 55%. This substance also came in with a percentage inhibition, average (I1390 conversion) in the experiment with Plasmin of 95%. Besides, the percentage inhibition, average (I1140 conversion) with Thrombin worked out at 6%. This substance also displayed a percentage inhibition, average (S2366 conversion) in the experiment with Activated protein C of 8%.
As for “α1-Antitrypsin variant 357AR358 (from UniProt P01009 25-418)”, the results for the percentage inhibition, average (L2120 conversion) with Human βFXIIa (Human), in the experiment with Human αFXIIa (Human) and with Plasma kallikrein were 49%, 62.5% and 98%, respectively. Moreover, the percentage inhibition, average (I1390 conversion) with Plasmin was found to be 99%. The same substance returned a percentage inhibition, average (I1140 conversion) with Thrombin of 97.5%. Also, the percentage inhibition, average (S2366 conversion) in the experiment with Activated protein C was determined as 66.5%.
As to “α1-Antitrypsin variant SGNRox* (from UniProt P01009 25-418)”, the percentage inhibition, average (L2120 conversion) was determined as 5.2% with Human βFXIIa (Human) and 71.6% in the experiment with Plasma kallikrein. In the experiment with Plasmin, this substance displayed a percentage inhibition, average (I1390 conversion) of 1%. In the experiment with Thrombin, this substance gave a percentage inhibition, average (I1140 conversion) of 0%. In addition, in the experiment with Activated protein C, the percentage inhibition, average (S2366 conversion) was found to be 1%.
